Data taken from publication PMC6173736.
Values belong to the substance of their own block, whether it stands above or below them.

Tests used:
Assay in all cases: SEC; HPLC-SEC on a bioZen 1.8 µm SEC-3 column in 150 mM KPi, pH 6.8; absorbance at 280 nm and 655 nm; samples after clicking with BCN-649, in vitro phosphopantetheinylation and purification over Ni-NTA magnetic beads
[1] = biological target: full-length mFAS mutant Gly2113AzPhe with additional ACP knock-out mutation Ser2150Ala (mouse) (UniProt P19096)
[2] = biological target: murine fatty acid synthase type I, wild type, full-length (mouse) (UniProt P19096); conditions: remark: other sources report otherwise
[3] = biological target: full-length mFAS mutant Gly2113AzPhe (mouse) (UniProt P19096)

Sequence of full-length mFAS mutant Gly2113AzPhe with additional ACP knock-out mutation Ser2150Ala (P19096 1-2112, change not shown): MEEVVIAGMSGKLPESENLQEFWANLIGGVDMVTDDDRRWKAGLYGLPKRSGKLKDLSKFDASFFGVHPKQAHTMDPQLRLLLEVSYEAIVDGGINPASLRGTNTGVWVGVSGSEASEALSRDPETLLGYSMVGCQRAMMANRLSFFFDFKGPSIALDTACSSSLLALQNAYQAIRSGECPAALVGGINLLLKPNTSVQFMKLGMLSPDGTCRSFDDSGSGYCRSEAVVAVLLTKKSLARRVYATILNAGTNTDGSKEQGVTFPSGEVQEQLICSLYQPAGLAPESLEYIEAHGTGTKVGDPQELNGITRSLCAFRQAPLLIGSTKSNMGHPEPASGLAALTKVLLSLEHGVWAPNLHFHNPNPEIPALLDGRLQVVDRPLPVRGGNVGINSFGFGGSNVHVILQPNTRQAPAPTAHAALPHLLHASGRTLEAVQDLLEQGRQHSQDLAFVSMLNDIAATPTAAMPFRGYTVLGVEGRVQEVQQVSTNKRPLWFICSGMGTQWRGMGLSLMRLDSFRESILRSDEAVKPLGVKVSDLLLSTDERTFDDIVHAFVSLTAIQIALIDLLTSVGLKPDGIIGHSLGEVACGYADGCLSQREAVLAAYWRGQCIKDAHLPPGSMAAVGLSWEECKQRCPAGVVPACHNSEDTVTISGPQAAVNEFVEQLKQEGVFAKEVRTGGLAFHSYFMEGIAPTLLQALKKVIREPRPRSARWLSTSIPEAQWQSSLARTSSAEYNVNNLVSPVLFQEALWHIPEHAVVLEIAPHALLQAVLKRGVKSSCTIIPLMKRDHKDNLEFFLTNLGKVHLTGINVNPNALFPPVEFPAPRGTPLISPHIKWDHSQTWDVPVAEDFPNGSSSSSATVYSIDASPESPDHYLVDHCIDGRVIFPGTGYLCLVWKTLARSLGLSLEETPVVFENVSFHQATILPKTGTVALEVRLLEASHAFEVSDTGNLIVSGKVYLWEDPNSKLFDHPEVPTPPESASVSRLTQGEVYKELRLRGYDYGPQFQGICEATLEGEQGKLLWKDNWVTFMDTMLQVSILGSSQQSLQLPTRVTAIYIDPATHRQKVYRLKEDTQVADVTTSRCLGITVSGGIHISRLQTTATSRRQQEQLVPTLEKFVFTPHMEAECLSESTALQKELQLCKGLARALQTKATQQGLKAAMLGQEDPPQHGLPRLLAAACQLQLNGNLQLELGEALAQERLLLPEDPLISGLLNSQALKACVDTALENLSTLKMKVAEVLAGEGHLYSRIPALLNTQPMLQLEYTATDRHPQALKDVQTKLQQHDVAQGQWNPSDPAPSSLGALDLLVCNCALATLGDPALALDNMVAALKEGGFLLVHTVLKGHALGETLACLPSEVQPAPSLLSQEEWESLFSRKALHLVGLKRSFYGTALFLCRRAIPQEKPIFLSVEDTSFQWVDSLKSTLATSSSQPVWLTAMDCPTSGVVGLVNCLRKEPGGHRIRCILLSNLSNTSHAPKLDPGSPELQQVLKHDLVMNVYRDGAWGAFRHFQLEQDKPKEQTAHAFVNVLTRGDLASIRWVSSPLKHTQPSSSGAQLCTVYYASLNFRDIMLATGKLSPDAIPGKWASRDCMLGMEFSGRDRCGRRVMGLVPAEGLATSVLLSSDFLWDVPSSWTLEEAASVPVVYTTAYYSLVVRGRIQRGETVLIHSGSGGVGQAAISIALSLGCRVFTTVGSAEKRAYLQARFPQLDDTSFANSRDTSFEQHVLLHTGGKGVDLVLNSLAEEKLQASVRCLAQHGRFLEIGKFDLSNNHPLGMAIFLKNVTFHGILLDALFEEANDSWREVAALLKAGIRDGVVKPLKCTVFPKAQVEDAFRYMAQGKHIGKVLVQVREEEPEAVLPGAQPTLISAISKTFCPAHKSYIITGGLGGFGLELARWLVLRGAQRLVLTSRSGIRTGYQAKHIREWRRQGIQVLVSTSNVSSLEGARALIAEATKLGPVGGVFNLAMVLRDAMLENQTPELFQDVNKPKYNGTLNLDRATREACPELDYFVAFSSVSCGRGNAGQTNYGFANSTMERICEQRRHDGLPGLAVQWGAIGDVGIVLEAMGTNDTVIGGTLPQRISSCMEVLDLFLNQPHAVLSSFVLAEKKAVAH

stoichiometry N [1]: 2
Substance: full-length mFAS mutant Gly2113AzPhe with additional ACP knock-out mutation Ser2150Ala (from UniProt P19096 1-2504) (enzyme)

stoichiometry N [2]: 2
Substance: murine fatty acid synthase type I, wild type, full-length, P19096 1-2504

stoichiometry N [3]: 2
Substance: full-length mFAS mutant Gly2113AzPhe (from UniProt P19096 1-2504) (enzyme)
